Here are results for 12 molecules from publication PMC9087419 (European Journal of Immunology, 2022).

Common to all, as to assay: flow cytometry on cells
Holding throughout (conditions): one partner purified
For orientation: In flow cytometry, cells or beads pass a laser one at a time.

Assay [1] addresses T1, SARS‐CoV‐2 spike membrane protein of the Omicron variant (B.1.1.529) (SARS-CoV-2, Omicron variant B.1.1.529, …, strain).
T1 construct: also called Omicron spike protein

In assay [2] the target is T2, SARS‐CoV‐2 spike membrane protein of the Delta variant (B.1.617.2) (SARS-CoV-2, Delta variant B.1.617.2, strain).
T2 construct: also called Delta spike protein

The target in assay [3] is T3, SARS‐CoV‐2 spike membrane protein of the Wuhan‐Hu‐1 strain (SARS-CoV-2 Wuhan-Hu-1 (QHD43416.1), UniProt P0DTC2).
T3 construct: source: HEK293, transiently cotransfected (PEI) with a GFP plasmid, on the cell surface

B1: AZD1061 (Cilgavimab) (antibody, V domains shown)
VH: EVQLVESGGGLVKPGGSLRLSCAASGFTFRDVWMSWVRQAPGKGLEWVGRIKSKIDGGTTDYAAPVKGRFTISRDDSKNTLYLQMNSLKTEDTAVYYCTTAGSYYYDTVGPGLPEGKFDYWGQGTLVTVSS
VL: not shown
For B1, the MdFI in assay [1] was 101000; in assay [2], 468000.

B2: BMS‐986413 (C144) (antibody, V domains shown)
VH: EVQLVESGGGLIQPGGSLRLSCAASGFTVSNNYMSWVRQAPGKGLEWVSVIYSGGSTYYADSVKGRFTISRDKSKNTLYLQMNRLRAEDTAVYYCAREGEVEGYNDFWSGYSRDRYYFDYWGQGTLVTVSS
VL: QSALTQPASVSGSPGQSITISCTGTSSDVGGYNYVSWYQQHPGKAPKLMIYDVSNRPSGVSNRFSGSKSGNTASLTISGLQAEDEADYYCSSYTSSSTRVFGTGTKVTVL
As for B2, the MdFI in assay [3] was found to be 340000; in assay [2] it was 408000.

B3: REGN10987 (Imdevimab) (antibody, V domains shown)
VH: QVQLVESGGGVVQPGRSLRLSCAASGFTFSNYAMYWVRQAPGKGLEWVAVISYDGSNKYYADSVKGRFTISRDNSKNTLYLQMNSLRTEDTAVYYCASGSDYGDYLLVYWGQGTLVTVSS
VL: QSALTQPASVSGSPGQSITISCTGTSSDVGGYNYVSWYQQHPGKAPKLMIYDVSKRPSGVSNRFSGSKSGNTASLTISGLQSEDEADYYCNSLTSISTWVFGGGTKLTVL
On to B3, for which the MdFI in assay [3] was 371000; in assay [2], 471000.

B4: S2H97 (antibody, V domains shown)
VH: QVRLVQSGAEVKKSGESLKISCKGSGYSFTSYWIGWVRQMPGKGLEWMGIIYPGDSDTRYSPSFQGQVTISADKSISTVYLQWSSLKASDTAMYYCARQWSHYTYDYYYWGQGTLVTISS
VL: QSVLTQPASVSGSPGQSITISCTGISSDVGGYNSVSWYQQHPGKAPKLMIYDVTNRPSGVSNRFSGSKSGNTASLTISGLQAEDEADYYCSSYTSSSTPPYVFGTGTKVSVL
On to B4, for which the MdFI in assay [1] is 296000; in assay [3], 58000; in assay [2] it was 74000.

B5: CT‐P59 (Regdanivimab) (antibody, V domains shown)
VH: QITLKESGPTLVKPTQTLTLTCSFSGFSLSTSGVGVGWIRQPPGKALEWLALIDWDDNKYHTTSLKTRLTISKDTSKNQVVLTMTNMDPVDTATYYCARIPGFLRYRNRYYYYGMDVWGQGTTVTVSS
VL: ELVLTQPPSVSAAPGQKVTISCSGSSSNIGNNYVSWYQQLPGTAPKLLIYDNNKRPSGIPDRFSGSKSGTSATLGITGLQTGDEADYYCGTWDSSLSAGVFGGGTELTVL
notes: also called Regdanvimab; Regkirona
With B5, the MdFI in assay [3] was determined as 131000; in assay [2], 233000.

B6: 3467 (antibody, V domains shown)
VH: QVQLQESGPGLVKPSETLSLTCTVSGGSISSYHWNWIRQPPGKGLEWIGYIYYSGNTNYNPSLKSRVSISTDTSKNQFSLKLSSVTAADTAVYYCVREMRRGYSGYDYWDLYAFDIWGQGTMVTVSS
VL: DIQLTQSPSFLSASVGDRVTITCRASQGISSYLAWYQQKPGKAPNLLIYAASTLQSGVPSRFSGSGSGTEFTLTISSLQPEDFATYYCQQLNSYPHTFGQGTKLEIK
notes: also called TRIANNI mouse‐derived antibody 3467
For the molecule B6, the MdFI in assay [1] came to 25000; in assay [3] it was 165000; in assay [2] it was 31000.

B7: LY‐CoV555 (Bamlanivimab) (antibody, V domains shown)
VH: QVQLVQSGAEVKKPGSSVKVSCKASGGTFSNYAISWVRQAPGQGLEWMGRIIPILGIANYAQKFQGRVTITADKSTSTAYMELSSLRSEDTAVYYCARGYYEARHYYYYYAMDVWGQGTAVTVSS
VL: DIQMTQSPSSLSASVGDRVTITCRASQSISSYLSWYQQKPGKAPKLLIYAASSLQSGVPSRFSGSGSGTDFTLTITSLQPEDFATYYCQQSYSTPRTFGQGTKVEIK
On to B7, for which the results for the MdFI in assay [3] and in assay [2] were 355000 and 40000, respectively.

B8: AZD8895 (Tixagevimab) (antibody, V domains shown)
VH: QMQLVQSGPEVKKPGTSVKVSCKASGFTFMSSAVQWVRQARGQRLEWIGWIVIGSGNTNYAQKFQERVTITRDMSTSTAYMELSSLRSEDTAVYYCAAPYCSSISCNDGFDIWGQGTMVTVSS
VL: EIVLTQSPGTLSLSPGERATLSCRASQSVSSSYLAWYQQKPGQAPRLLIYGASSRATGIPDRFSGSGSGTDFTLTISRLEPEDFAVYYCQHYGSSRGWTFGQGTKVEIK
For B8, the MdFI worked out at 73000 in assay [1], 250000 in assay [3] and 59000 in assay [2].

B9: BMS‐986414 (C135) (antibody, V domains shown)
VH: QVQLVESGGGVVQPGRSLRLSCAASGFTFSSYAMHWVRQAPGKGLEWVAVIPFDGRNKYYADSVTGRFTISRDNSKNTLYLQMNSLRAEDTAVYYCASSSGYLFHSDYWGQGTLVTVSS
VL: DIQMTQSPSTLSASVGDRVTITCRASQSISNWLAWFQQKPGKAPKLLIYEASSLESGVPSRFSGSGSGTEFTLTISSLQPDDFATYYCQQYNSYPWTFGQGTKVEIK
B9: the MdFI in assay [2] stood at 666000.

B10: LY‐CoV016 (Etesevimab) (antibody, V domains shown)
VH: EVQLVESGGGLVQPGGSLRLSCAASGFTVSSNYMSWVRQAPGKGLEWVSVIYSGGSTFYADSVKGRFTISRDNSMNTLFLQMNSLRAEDTAVYYCARVLPMYGDYLDYWGQGTLVTVSS
VL: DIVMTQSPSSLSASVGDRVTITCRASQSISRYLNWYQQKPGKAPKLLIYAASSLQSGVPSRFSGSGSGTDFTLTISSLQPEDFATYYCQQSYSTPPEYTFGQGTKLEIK
Take B10: the values for the MdFI in assay [3] and in assay [2] were 282000 and 192000, respectively.

B11: REGN10933 (Casirivimab) (antibody, V domains shown)
VH: QVQLVESGGGLVKPGGSLRLSCAASGFTFSDYYMSWIRQAPGKGLEWVSYITYSGSTIYYADSVKGRFTISRDNAKSSLYLQMNSLRAEDTAVYYCARDRGTTMVPFDYWGQGTLVTVSS
VL: DIQMTQSPSSLSASVGDRVTITCQASQDITNYLNWYQQKPGKAPKLLIYAASNLETGVPSRFSGSGSGTDFTFTISGLQPEDIATYYCQQYDNLPLTFGGGTKVEIK
For B11, the MdFI in assay [1] was determined as 103000; in assay [3] it was 236000; in assay [2], 148000.

B12: 8D2 (antibody, V domains shown)
VH: EVQLVESGGGLVQPGGSLRLSCAASGFTFSSYWMSWVRQAPGKGLEWVANINQDGSEKYYVDSVKGRFTISRDNAKNSLYLQVNSLRAEDTAVYYCARDWDYDILTGSWFGAFDIWGQGTTVTVSS
VL: DIQMTQSPSSLSASVGDRVTITCRASQGIRNDLGWYQQKPGKAPKRLIYAASSLQSGVPSRFSGSGSGTEFTLTISSLQPEDFATYYCLQHNSYPLTFGGGTKVEIK
B12: the MdFI in assay [3] turned out to be 37000.
